The assay concerns the target T1, mouse IFNα4 without tag (Mus musculus, UniProt P07351).
T1 construct: Expressed with an N-terminal mouse IgG signal peptide (HVM06_MOUSE) and a C-terminal TEV site before the tags; Produced in a glycosylation deficient cell line; also called Interferon α; not shown: Twin-Strep-tag, C-terminal, cleaved; His8, C-terminal, cleaved
Kind of assay: BLI; Octet Red96; αIFNα-ab covalently coupled (EDC/NHS) to Ni-NTA tips, increasing concentrations of IFNα4 in solution; kinetic buffer 0.2% BSA in PBS with 0.05% Tween 20; association 800 s, dissociation 1800 s; 1:1 interaction model. To be noted: both partners purified. (In general: BLI is a label-free optical method that tracks binding on a fibre tip over time.)

T1 sequence (P07351 25-186): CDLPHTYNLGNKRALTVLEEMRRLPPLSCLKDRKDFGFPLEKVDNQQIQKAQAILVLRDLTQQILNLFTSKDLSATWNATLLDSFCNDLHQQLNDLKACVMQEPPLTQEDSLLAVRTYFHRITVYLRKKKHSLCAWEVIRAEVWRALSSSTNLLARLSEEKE

B1: soluble scFv αIFNα-ab (scFv, V domains shown)
VH: EVQLVESGGGLVRPGGSLKLSCTASGFTFSDFDMAWVRQAPTRGLEWVASISSGPANTHYRGSVRGRFTGSRNDAKSTLYLQMDSLRSEDTATYYCARPFGSGYYFDYWGQGVVVTVSS
VL: DTVLTQSPALAVSLGQRVTISCKASESVSSSTSNYMHWYQQKPGQRPKLLIYLASNLESGVPARFSGSGSGTDFILNIDPVEADDVATYFCQQSWNDPPTFGSGTKVELK
notes: VH of the rat anti-mouse IFNα hybridoma antibody 4EA1; linker, printed as (GGGGS)3; VL (kappa) of the rat anti-mouse IFNα hybridoma antibody 4EA1; Order VH-(GGGGS)3-VL; made with a signal peptide (secreted); also called anti-IFNα scFv; soluble form of the intrabody; not shown: His6, C-terminal, kept
Regarding B1, binding was put at a Kd of 38.6 nM; the koff – broadly, a measure of how fast the partners let go of each other – was 0.00023 s⁻¹; the kon (in general, the rate constant with which the complex forms) worked out at 5970 M⁻¹ s⁻¹.

The values above are taken from publication PMC6467385, “ER intrabody-mediated inhibition of interferon α secretion by mouse macrophages and dendritic cells” (PLoS ONE, 2019).
